Experiment [1] has as its target T1, HLA-A2 (human).
T1 construct: allele written as A*02:01 on that basis; also called HLA-A2.1; A2.1
As to the kind of experiment: immunofluorescence staining of ovarian tumor OVA-16.

The target of experiment [2] is T1, HLA-A2. Put plainly: immunofluorescence staining of ovarian tumor OVA-14.
Experiment [3] addresses certain MHC Class I heavy chains other than HLA-A2. Put plainly: cell-based or functional assay.
Experiment [4] concerns the target T1, HLA-A2. Put plainly: HLA-A2 stabilization on T2 cells, against D113.
Experiment [5] has as its target T1, HLA-A2. As to the kind of experiment: HLA-A2 stabilization on T2 cells.

In the experiment with HLA-A2 [1], mAb MA2.1 (anti-HLA-A2) (antibody) gave a % HLA-A2 positive cells of 85.3% and a mean fluorescence of 42. Besides, in the experiment with HLA-A2 [2], the % HLA-A2 positive cells was determined as 92.1% and the mean fluorescence was 49.

RFRELVSEFSRMAR [C43 (HER-2:968-981)] had an inhibition of lysis of OVA-1 tumor (HLA-A2 negative) by autologous CTL-1 after pre-pulsing with peptide in experiment [3] of 45%.

In turn, RFRELIIEFSRMAR [C44 (analog of HER-2:968-981, VS->II)] yielded an inhibition of lysis of OVA-1 tumor (HLA-A2 negative) by autologous CTL-1 after pre-pulsing with peptide in experiment [3] of 25%.

Regarding GLYQGCQVV (Synthetic analog) [D115 = HER-2:48-56(48H->G)], the binding result with HLA-A2 [4] is recorded as “binds”.

On to RLLYQGCQVV (Synthetic analog) [D114 = HER-2:47-56(48H->L)], for which the binding result with HLA-A2 [4] is “binds”.

As for ELVSEVSKV [C81 (analog of HER-2:971-979, F->V, RM->KV)], the binding result with HLA-A2 [5] is “binds”.

Consider ELVSEFSRV (Synthetic analog of C85) [C84 (HER-2:971-979(Val))], for which the binding result in the experiment with HLA-A2 [5] was “binds”.

The record behind these values is US20030027766A1 (University of Texas, published 2003).
